The target in assay [1] is T1, biotinylated renin D226A mutant (human, biotin (NHS-PEG4-Biotin), preferentially on N-terminal alpha-amino groups).
T1 construct: human renin D226A, as m1; source: HEK293EBNA cells, purified; biotinylated with EZ-link-NHS-PEG4-Biotin at pH 6.2
T1 sequence (P00797 67-406 with D226A, looked up): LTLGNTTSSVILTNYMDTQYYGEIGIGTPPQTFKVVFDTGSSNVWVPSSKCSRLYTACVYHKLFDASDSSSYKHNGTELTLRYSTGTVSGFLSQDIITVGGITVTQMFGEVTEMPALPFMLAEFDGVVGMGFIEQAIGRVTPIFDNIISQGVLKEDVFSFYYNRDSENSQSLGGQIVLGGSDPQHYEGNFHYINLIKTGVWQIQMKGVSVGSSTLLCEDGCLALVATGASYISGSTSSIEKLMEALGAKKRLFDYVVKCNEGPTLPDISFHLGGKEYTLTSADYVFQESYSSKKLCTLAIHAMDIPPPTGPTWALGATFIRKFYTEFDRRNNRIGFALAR
The assay is described as follows: BLI; as a1 (biotinylated renin D226A on streptavidin biosensors), but KD from steady-state analysis because on and off rates were very fast. The note with it: both partners purified. In general terms: BLI is a label-free optical method that tracks binding on a fibre tip over time.

Assay [2] addresses T1, biotinylated renin D226A mutant. The assay is described as follows: BLI; FortéBio Octet Red96; biotinylated renin D226A (2.5 μg/ml) loaded on streptavidin biosensors; 2-fold dilutions of AGT in 10 mM Tris, pH 7.4, 0.15 M NaCl, 1% BSA; 1:1 binding model, global fit; KD = koff/kon; three independent assays. The note with it: both partners purified.

B1: spent AGT (human AGT without the N-terminal 10-residue angiotensin I peptide) (domain or fragment)
chain: VIHNESTCEQLAKANAGKPKDPTFIPAPIQAKTSPVDEKALQDQLVLVAAKLDTEDKLRAAMVGMLANFLGFRIYGMHSELWGVVHGATVLSPTAVFGTLASLYLGALDHTADRLQAILGVPWKDKNCTSRLDAHKVLSALQAVQGLLVAQGRADSQAQLLLSTVVGVFTAPGLHLKQPFVQGLALYTPVVLPRSLDFTELDVAAEKIDRFMQAVTGWKTGCSLMGASVDSTLAFNTYVHFQGKMKGFSLLAEPQEFWVDNSTSVSVPMLSGMGTFQHWSDIQDNFSVTQVPFTESACLLLIQPHYASDLDKVEGLTFQQNSLNWMKKLSPRTIHLTMPQLVLQGSYDLQDLLAQAELPAILHTELNLQKLSNDRIRVGEVLNSIFFELEADEREPTESTQQLNKPEVLEVTLNRPFLFAVYDQSATALHFLGRVANPLSTA
modifications: glycosylated
In assay [1], B1 came in with a Kd of 13 µM.

B2: fully glycosylated WT human angiotensinogen (AGT) (natural protein)
chain: DRVYIHPFHLVIHNESTCEQLAKANAGKPKDPTFIPAPIQAKTSPVDEKALQDQLVLVAAKLDTEDKLRAAMVGMLANFLGFRIYGMHSELWGVVHGATVLSPTAVFGTLASLYLGALDHTADRLQAILGVPWKDKNCTSRLDAHKVLSALQAVQGLLVAQGRADSQAQLLLSTVVGVFTAPGLHLKQPFVQGLALYTPVVLPRSLDFTELDVAAEKIDRFMQAVTGWKTGCSLMGASVDSTLAFNTYVHFQGKMKGFSLLAEPQEFWVDNSTSVSVPMLSGMGTFQHWSDIQDNFSVTQVPFTESACLLLIQPHYASDLDKVEGLTFQQNSLNWMKKLSPRTIHLTMPQLVLQGSYDLQDLLAQAELPAILHTELNLQKLSNDRIRVGEVLNSIFFELEADEREPTESTQQLNKPEVLEVTLNRPFLFAVYDQSATALHFLGRVANPLSTA
modifications: N-linked glycans (fully glycosylated; glycosylation sites Asn14, Asn137, Asn271, Asn295)
B2: in assay [2], binding was characterised by a dissociation constant (Kd) of 0.0203 µM, the koff is 0.000437 s⁻¹ and the kon came to 21500 M⁻¹ s⁻¹.

Broadly, the Kd is the equilibrium constant for the complex coming apart. Read a high Kd as a looser complex. What is called koff is the rate constant with which the complex falls apart. Higher therefore signals a short-lived complex. The kon is the second-order rate constant of association.

Source of the values: article PMC6378967, “Structural basis for the specificity of renin-mediated angiotensinogen cleavage” (The Journal of Biological Chemistry, 2018).
